Data from patent US20170327577A1, “METHODS OF CONSTRUCTING AMINO TERMINAL IMMUNOGLOBULIN FUSION PROTEINS AND COMPOSITIONS THEREOF” (The California Institute for Biomedical Research, priority 2014, published 2017).

Columns and labels:
leptin receptor = leptin receptor (UniProt P48357); experiment: cell-based or functional assay
relaxin receptor (LGR7) = biological target: T1, relaxin receptor (LGR7) (UniProt Q9HBX9); experiment: cell-based or functional assay
T1 sequence (looked up): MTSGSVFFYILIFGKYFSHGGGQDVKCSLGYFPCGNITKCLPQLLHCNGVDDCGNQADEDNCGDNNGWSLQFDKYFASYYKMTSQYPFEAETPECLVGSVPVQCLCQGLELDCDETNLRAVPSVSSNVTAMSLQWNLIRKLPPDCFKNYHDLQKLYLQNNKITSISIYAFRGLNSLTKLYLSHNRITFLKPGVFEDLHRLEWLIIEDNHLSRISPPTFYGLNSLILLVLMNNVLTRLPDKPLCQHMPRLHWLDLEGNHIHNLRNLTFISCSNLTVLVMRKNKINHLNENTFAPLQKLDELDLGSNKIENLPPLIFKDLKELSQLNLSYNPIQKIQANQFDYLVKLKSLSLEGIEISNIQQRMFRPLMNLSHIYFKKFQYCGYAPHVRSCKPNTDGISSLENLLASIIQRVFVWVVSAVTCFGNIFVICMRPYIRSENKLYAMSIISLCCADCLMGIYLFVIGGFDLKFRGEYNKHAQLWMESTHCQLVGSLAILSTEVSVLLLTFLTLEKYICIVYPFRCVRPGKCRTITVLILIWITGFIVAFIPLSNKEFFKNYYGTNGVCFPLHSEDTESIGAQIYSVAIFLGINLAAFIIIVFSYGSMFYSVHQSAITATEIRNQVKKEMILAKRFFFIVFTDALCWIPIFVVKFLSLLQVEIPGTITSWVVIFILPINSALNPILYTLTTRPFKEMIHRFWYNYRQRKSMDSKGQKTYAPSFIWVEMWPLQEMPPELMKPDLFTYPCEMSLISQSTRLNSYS

GLP-2 receptor (GLP-2R) = biological target: T2, GLP-2 receptor (GLP-2R) (Homo sapiens, UniProt O95838); experiment: GLP-2 receptor activation, CRE-luciferase reporter assay in HEK293 cells; type: cell-based; conditions: Example 18; HEK293 GLP-2R CRE-Luc, 24 hours
T2 sequence (O95838 1-553): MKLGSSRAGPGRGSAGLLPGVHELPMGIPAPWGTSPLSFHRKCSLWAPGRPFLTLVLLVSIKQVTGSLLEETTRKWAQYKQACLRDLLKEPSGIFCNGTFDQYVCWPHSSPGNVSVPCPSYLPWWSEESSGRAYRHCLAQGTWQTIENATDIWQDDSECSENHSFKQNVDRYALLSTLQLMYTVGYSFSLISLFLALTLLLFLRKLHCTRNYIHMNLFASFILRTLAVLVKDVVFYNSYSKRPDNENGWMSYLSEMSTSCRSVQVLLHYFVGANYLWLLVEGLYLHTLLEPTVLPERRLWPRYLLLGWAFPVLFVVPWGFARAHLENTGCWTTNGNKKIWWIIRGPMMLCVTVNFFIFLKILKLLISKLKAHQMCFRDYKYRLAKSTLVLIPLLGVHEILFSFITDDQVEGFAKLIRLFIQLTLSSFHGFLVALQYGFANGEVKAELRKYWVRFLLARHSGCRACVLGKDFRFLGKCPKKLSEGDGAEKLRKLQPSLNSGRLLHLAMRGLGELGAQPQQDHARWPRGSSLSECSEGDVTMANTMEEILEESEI
Method: Luminescence intensities were then measured using One-Glo (Promega) luciferase reagent by following manufacturer's instruction. The EC50 values were determined by fitting data into a logistic sigmoidal function: y=A2+(A1-A2)/(1+(x/x0)p), where A1 is the initial value, A2 is the final value, x0 is the inflection point of the curve, and p is the power. Data was analyzed using GraphPad Prism 6 software.

GLP-2 receptor = GLP-2 receptor (UniProt O95838); experiment: cell-based or functional assay
relaxin receptor (LGR8) = relaxin receptor (LGR8) (Homo sapiens, UniProt Q8WXD0); experiment: cell-based or functional assay
Chain of relaxin receptor (LGR8) (Q8WXD0 whole entry): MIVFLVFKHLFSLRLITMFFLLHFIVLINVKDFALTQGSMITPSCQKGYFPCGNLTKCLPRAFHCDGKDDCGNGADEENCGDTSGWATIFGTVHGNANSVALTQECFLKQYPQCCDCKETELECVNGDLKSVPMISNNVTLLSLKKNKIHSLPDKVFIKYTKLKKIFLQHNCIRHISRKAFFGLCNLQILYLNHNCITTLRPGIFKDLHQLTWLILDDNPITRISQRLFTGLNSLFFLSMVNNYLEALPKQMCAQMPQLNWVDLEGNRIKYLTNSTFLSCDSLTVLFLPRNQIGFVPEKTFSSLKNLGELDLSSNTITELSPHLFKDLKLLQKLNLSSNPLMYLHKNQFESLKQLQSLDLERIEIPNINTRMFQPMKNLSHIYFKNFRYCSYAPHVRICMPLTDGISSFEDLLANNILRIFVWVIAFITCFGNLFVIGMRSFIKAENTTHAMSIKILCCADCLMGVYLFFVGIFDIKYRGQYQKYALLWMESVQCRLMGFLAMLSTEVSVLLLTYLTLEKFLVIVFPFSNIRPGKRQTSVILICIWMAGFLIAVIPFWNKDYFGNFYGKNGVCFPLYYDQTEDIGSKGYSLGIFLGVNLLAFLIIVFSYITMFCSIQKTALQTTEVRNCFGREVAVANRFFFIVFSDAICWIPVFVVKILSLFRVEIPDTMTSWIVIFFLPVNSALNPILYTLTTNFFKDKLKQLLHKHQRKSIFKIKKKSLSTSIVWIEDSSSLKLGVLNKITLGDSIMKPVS

glucagon receptor = glucagon receptor (UniProt P47871); experiment: cell-based or functional assay
GLP-1 receptor = GLP-1 receptor (UniProt P43220); experiment: cell-based or functional assay

Chain of palivizumab(NH, CEXGGGGS)-relaxin2(single) and palivizumab light chain (heavy): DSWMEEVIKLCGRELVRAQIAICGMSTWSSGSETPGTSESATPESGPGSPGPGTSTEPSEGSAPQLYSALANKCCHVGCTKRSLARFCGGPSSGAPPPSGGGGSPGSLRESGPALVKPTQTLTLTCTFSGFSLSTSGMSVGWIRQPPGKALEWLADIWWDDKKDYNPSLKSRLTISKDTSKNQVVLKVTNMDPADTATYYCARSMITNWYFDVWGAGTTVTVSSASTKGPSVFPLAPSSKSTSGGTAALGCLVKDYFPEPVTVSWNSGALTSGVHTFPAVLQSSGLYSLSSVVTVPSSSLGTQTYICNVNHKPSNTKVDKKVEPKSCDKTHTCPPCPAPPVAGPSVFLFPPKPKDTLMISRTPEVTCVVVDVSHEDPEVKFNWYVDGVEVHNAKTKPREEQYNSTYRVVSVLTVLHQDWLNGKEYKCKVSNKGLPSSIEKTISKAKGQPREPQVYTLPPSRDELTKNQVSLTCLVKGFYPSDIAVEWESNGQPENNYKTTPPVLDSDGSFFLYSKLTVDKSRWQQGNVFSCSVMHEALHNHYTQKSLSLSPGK
Chain of palivizumab(NH, CEXGGGGS)-relaxin2(single) and palivizumab light chain (light): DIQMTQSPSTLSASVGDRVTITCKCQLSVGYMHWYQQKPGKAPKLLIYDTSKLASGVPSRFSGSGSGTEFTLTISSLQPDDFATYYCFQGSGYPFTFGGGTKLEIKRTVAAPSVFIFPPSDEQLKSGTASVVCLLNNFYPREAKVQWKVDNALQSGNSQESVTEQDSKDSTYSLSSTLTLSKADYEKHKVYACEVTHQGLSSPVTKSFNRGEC
Chain of palivizumab(NH, EAAAK)-GLP2 and palivizumab(L) (heavy): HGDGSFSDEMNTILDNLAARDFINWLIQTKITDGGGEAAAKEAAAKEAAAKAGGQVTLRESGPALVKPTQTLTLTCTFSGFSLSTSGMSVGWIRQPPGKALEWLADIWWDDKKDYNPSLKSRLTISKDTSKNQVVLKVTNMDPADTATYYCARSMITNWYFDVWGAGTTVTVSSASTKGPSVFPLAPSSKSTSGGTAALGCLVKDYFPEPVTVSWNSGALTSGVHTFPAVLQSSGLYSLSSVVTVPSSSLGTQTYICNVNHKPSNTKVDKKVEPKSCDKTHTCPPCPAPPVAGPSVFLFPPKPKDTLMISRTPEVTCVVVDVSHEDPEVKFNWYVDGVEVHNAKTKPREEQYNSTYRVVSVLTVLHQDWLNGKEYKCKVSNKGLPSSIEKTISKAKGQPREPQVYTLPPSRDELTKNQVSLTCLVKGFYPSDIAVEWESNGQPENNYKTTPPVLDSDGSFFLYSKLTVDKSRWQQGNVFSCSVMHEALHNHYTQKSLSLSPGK
Chain of palivizumab(NH, EAAAK)-GLP2 and palivizumab(L) (light): as the sequence (light) above
Chain of palivizumab (NH, GGGGS3)-relaxin2(9GS) and palivizumab light chain (heavy): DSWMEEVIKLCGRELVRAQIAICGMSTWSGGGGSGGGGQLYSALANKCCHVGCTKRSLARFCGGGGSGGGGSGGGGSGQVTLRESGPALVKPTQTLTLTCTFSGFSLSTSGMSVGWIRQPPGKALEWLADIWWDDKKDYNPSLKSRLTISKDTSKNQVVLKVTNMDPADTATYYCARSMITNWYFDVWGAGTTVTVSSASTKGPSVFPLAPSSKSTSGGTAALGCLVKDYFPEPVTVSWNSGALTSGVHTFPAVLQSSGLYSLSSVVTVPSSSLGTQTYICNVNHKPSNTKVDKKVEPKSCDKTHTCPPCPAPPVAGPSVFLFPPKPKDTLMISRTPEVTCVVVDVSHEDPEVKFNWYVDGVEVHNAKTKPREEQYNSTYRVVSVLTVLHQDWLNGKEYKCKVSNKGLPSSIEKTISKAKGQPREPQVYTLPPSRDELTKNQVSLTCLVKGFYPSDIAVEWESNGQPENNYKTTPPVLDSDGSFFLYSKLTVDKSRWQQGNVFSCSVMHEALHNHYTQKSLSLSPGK
Chain of palivizumab (NH, GGGGS3)-relaxin2(9GS) and palivizumab light chain (light): as the sequence (light) above
Chain of palivizumab(NH, CEXGGGGG)-relaxin2(30GS) and palivizumab light chain (heavy): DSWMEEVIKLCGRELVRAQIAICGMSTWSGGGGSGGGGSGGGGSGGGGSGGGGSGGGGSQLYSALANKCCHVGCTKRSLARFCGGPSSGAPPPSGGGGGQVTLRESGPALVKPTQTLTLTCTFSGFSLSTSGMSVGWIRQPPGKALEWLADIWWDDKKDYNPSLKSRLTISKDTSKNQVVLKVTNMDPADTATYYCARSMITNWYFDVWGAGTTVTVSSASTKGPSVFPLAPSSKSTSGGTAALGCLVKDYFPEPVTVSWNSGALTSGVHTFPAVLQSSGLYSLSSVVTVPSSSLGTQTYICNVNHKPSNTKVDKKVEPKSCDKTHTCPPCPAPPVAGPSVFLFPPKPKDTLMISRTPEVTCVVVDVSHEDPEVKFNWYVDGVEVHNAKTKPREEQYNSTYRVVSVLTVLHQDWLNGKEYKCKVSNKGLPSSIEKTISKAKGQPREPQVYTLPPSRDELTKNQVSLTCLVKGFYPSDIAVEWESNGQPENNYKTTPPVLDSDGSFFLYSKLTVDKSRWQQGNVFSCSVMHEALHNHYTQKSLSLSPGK
Chain of palivizumab(NH, CEXGGGGG)-relaxin2(30GS) and palivizumab light chain (light): as the sequence (light) above
Chain of palivizumab(NH, CEXGGGGG)-relaxin2(GGGPRR) and palivizumab light chain (heavy): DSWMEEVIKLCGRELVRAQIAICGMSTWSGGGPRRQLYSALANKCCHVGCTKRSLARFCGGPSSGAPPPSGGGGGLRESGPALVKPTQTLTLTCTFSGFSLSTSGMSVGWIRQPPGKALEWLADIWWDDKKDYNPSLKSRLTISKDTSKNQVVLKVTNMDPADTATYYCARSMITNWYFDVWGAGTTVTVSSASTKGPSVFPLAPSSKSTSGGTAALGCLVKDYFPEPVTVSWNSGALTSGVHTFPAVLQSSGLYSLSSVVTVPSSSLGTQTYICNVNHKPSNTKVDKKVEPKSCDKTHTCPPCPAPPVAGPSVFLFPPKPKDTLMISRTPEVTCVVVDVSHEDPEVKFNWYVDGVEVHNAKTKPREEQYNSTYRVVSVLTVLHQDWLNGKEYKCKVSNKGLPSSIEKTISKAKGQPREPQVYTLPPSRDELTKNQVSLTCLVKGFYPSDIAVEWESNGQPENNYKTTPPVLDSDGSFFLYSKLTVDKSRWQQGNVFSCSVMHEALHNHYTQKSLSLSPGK
Chain of palivizumab(NH, CEXGGGGG)-relaxin2(GGGPRR) and palivizumab light chain (light): as the sequence (light) above

Question: With “leptin (from UniProt P41159 22-167) (ligand)” as the substance, how does the EC50, luciferase reporter (FIG. 6) (leptin receptor) read?
Answer: Its EC50, luciferase reporter (FIG. 6) is 55 pM.

Question: For “palivizumab (NH, CEXGGGGG)-relaxin2(9GS) and palivizumab light chain”, which EC50, CRE-luciferase reporter in HEK293 cells (relaxin receptor (LGR7)) is on record?
Answer: The EC50, CRE-luciferase reporter in HEK293 cells was 480 pM.

Question: How did the EC50, CRE-luciferase reporter in HEK293 cells (relaxin receptor (LGR7)) turn out when “palivizumab (NH, GGGGS3)-relaxin2(9GS) and palivizumab light chain” was run?
Answer: Its EC50, CRE-luciferase reporter in HEK293 cells is 240 pM.

Question: “palivizumab (NH, GGGGS3)-relaxin(18GS) and palivizumab light chain” was tested. Which EC50, CRE-luciferase reporter in HEK293 cells (relaxin receptor (LGR7)) did it give?
Answer: Its EC50, CRE-luciferase reporter in HEK293 cells is 1300 pM.

Question: “palivizumab fab(NH, CEXGGGGS)-relaxin2(single) and palivizumab light chain” was tested. Which EC50, CRE-luciferase reporter in HEK293 cells (relaxin receptor (LGR7)) did it give?
Answer: Its EC50, CRE-luciferase reporter in HEK293 cells is 47300 pM.

Question: With “palivizumab fab(NH, GGGGS3)-relaxin2(9GS) and palivizumab light chain” as the substance, how does the EC50, CRE-luciferase reporter in HEK293 cells (relaxin receptor (LGR7)) read?
Answer: The EC50, CRE-luciferase reporter in HEK293 cells was 5800 pM.

Question: For “palivizumab(NH, CEXGGGGG)-relaxin2(30GS) and palivizumab light chain”, which EC50, CRE-luciferase reporter in HEK293 cells (relaxin receptor (LGR7)) is on record?
Answer: Its EC50, CRE-luciferase reporter in HEK293 cells is 208 pM.

Question: For “palivizumab(NH, CEXGGGGG)-relaxin2(GGGPRR) and palivizumab light chain”, which EC50, CRE-luciferase reporter in HEK293 cells (relaxin receptor (LGR7)) is on record?
Answer: The EC50, CRE-luciferase reporter in HEK293 cells was 2000 pM.

Question: “palivizumab(NH, CEXGGGGS)-GLP2 (SEQ ID NO: 218) and palivizumab(L) (SEQ ID NO: 7)” was tested. Which EC50 (GLP-2 receptor (GLP-2R)) did it give?
Answer: Its EC50 is 0.133 nM.

Question: How did the EC50, CRE-luciferase reporter in HEK293 cells (GLP-2 receptor) turn out when “palivizumab(NH, CEXGGGGS)-GLP2 and palivizumab(L)” was run?
Answer: The EC50, CRE-luciferase reporter in HEK293 cells was 133 pM.

Question: How did the EC50, CRE-luciferase reporter in HEK293 cells (relaxin receptor (LGR7)) turn out when “palivizumab(NH, CEXGGGGS)-relaxin2(single) and palivizumab light chain” was run?
Answer: Its EC50, CRE-luciferase reporter in HEK293 cells is 2500 pM.

Question: And the EC50, CRE-luciferase reporter in HEK293 cells (FIG. 13) (relaxin receptor (LGR7))?
Answer: Its EC50, CRE-luciferase reporter in HEK293 cells (FIG. 13) is 2.5 nM.

Question: What about the EC50, CRE-luciferase reporter in HEK293 cells (FIG. 13) (relaxin receptor (LGR8)) of the same substance?
Answer: The EC50, CRE-luciferase reporter in HEK293 cells (FIG. 13) was 553 nM.

Question: How did the EC50, CRE-luciferase reporter in HEK293 cells (GLP-2 receptor) turn out when “palivizumab(NH, EAAAK)-GLP2 and palivizumab(L)” was run?
Answer: Its EC50, CRE-luciferase reporter in HEK293 cells is 69 pM.

Question: Which EC50, CRE-luciferase reporter in HEK293 cells (relaxin receptor (LGR7)) does the source give for “palivizumab(NH, EAAAK)-relaxin2(GGGPRR) and palivizumab light chain” here?
Answer: The EC50, CRE-luciferase reporter in HEK293 cells was 3400 pM.

Question: With “palivizumab(NL, EAAAK)-glucagon(2G) and pPalivizumab(NH, GGGGS1)-exendin-4” as the substance, how does the EC50, CRE-luciferase reporter in HEK293 cells (glucagon receptor) read?
Answer: Its EC50, CRE-luciferase reporter in HEK293 cells is 26 pM.

Question: What about the EC50, CRE-luciferase reporter in HEK293 cells (GLP-1 receptor) of the same substance?
Answer: The EC50, CRE-luciferase reporter in HEK293 cells was 9 pM.

Question: Which results are given for “relaxin-2 (from UniProt P04090 25-185) (ligand)”?
Answer: EC50, CRE-luciferase reporter in HEK293 cells (relaxin receptor (LGR7)): 12.1 pM; EC50, CRE-luciferase reporter in HEK293 cells (FIG. 13) (relaxin receptor (LGR7)): 0.012 nM; EC50, CRE-luciferase reporter in HEK293 cells (FIG. 23) (relaxin receptor (LGR7)): 0.014 nM; EC50, CRE-luciferase reporter in HEK293 cells (FIG. 13) (relaxin receptor (LGR8)): 11.2 nM; EC50, CRE-luciferase reporter in HEK293 cells (FIG. 23) (relaxin receptor (LGR8)): 11.2 nM

Question: Which EC50, luciferase reporter (FIG. 6) (leptin receptor) does the source give for trastuzumab(CDR3H) Leptin here?
Answer: Its EC50, luciferase reporter (FIG. 6) is 44.8 pM.
